Test results reported in patent publication US20220144937A1 (JIANGSU HENGRUI MEDICINE, published 2022).
Positions count from the first letter of the chain named. Names and notes keep the numbering of the source. Values belong to the binder of their own block, whether it stands above or below them.

What was measured:
[1] = target: T1, human IL-5 with his-tag (rhIL-5-his) (human, UniProt P05113 20-134); test: Biacore
T1 construct: It was expressed in HEK293 and purified from the supernatant; also called HuIL-5; recombinant human IL-5
T1 sequence: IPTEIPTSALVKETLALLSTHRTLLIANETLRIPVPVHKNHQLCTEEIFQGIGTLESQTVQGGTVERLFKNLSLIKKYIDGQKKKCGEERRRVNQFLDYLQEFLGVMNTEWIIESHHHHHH
Procedure: (§1) The affinity of the murine IL-5 antibody to be tested with human IL-5 was measured by Biacore T200 (GE) instrument.
(§2) The protein A biosensor chip was used to affinity capture of the molecules to be tested, and then the antigen (recombinant human and cyno IL-5 prepared in Example 1) flowed through the surface of the chip, and the reaction signal was detected in real time with the Biacore T200 instrument to obtain the binding and dissociation curves. After the dissociation of each experimental cycle was completed, the biosensor chip was washed and regenerated with glycine-hydrochloric acid regeneration solution (pH 1.5). BIA evaluation version 4.1 GE software was used to fit the data against (1:1) Langmuir model, and the affinity value was obtained and shown in Table 13.

cyno IL-5 with his-tag = target: T2, cyno IL-5 with his-tag (cyno (paragraph 156 says rhesus), UniProt P48093 20-134 (rhesus entry)); test: Biacore T200, antibody captured on protein A chip, antigen in flow, 1:1 Langmuir
T2 construct: also called rhesus IL-5 with His-tag; monkey IL-5
T2 sequence: T1 sequence with T7A, D80G
Procedure: as §1, §2

[2] = target: T1, human IL-5 with his-tag (rhIL-5-his); test: as above
Procedure: as §1, §2

[3] = target: T1, human IL-5 with his-tag (rhIL-5-his); test: competition ELISA: IL-5 coated, biotin-IL-5Rα (10 µg/ml) as competitor, antibody diluted
Procedure: To identify the ability of IL-5 antibody to block IL-5 from binding to the extracellular region of recombinantly expressed IL-5α receptor protein, IL-5 (5 μg/ml in PBS) was coated on an ELISA plate and incubated at 37° C. for 1 hour; the liquid was removed, 200 μl/well of 5% skimmed milk blocking solution diluted with PBS was added, and incubated for 2.5 hours in a 37° C. incubator for blocking. After blocking, the blocking solution was removed and the plate was washed with PBST buffer (pH 7.4 PBS comprising 0.05% Tween-20) for 5 times; 25 μl of 10 μg/ml IL-5Rα (in 1% BSA) labeled by a biotin labeling kit (Tojin Chemical, LK03) was added, and then 25 μl of gradient-diluted antibody was added (the antibody competed with IL-5Rα for the binding with IL-5) and incubated at 37° C. for 1 hour. After the incubation, the reaction solution in the microtiter plate was removed, the plate was washed for 5 times with PBST, added with 50 μl/well of Streptavidin-Peroxidase Polymer (Sigma, 52438-250UG) diluted with sample dilution solution at 1:600 and incubated for 1 hour at 37° C.

[4] = target: T1, human IL-5 with his-tag (rhIL-5-his); test: Biacore T200, antibody captured on protein A chip, antigen in flow, 1:1 Langmuir; remark: listed apart in the source
Procedure: The affinity of the humanized IL-5 antibody to be tested with human IL-5 was measured by Biacore T200 (GE) instrument.
as §2, with “(prepared” for “(recombinant human and cyno IL-5 prepared”, “14.” for “13.”

IL9 (R&D, 209-IL-010/CF) = IL9 (R&D, 209-IL-010/CF) (UniProt P15248 19-144); test: Fortebio biolayer interferometry: antibody captured on Protein A biosensor, 40 nM cytokine injected; signal relative to IL-5 = 100%
Procedure: (§3) IL-5 was one of Th2 cytokines.
(§4) In particular: Protein A Biosensor (PALL Fortebio, 18-5010) was used to capture the antibody, the capture signal was recorded, and then 40 nM each cytokine was injected, the new binding signal was recorded. Finally, the binding signal with IL-5 was defined as 100%.

[5] = target: T3, IL31 (R&D, 2824-IL-010/CF) (UniProt Q6EBC2 24-164); test: as above
T3 sequence (looked up): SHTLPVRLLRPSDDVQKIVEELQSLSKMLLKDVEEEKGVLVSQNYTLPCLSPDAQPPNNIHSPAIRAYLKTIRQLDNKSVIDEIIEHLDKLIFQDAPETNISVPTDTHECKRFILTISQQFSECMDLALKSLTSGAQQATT
Procedure: as §3, §4

[6] = target: GMCSF (R&D, 215-GM-010/CF) (UniProt P04141 18-144); test: as above
Procedure: as §3, §4

[7] = target: IL13 (R&D, 213-ILB-025/CF) (UniProt P35225 35-146); test: as above
Procedure: as §3, §4

[8] = target: IL6 (R&D, 7270-IL-025/CF) (UniProt P05231 30-212, limits assumed); test: as above
Procedure: as §3, §4

IL4 (R&D, 204-IL-050/CF) = target: T4, IL4 (R&D, 204-IL-050/CF) (UniProt P05112 25-153); test: as above
T4 sequence (looked up): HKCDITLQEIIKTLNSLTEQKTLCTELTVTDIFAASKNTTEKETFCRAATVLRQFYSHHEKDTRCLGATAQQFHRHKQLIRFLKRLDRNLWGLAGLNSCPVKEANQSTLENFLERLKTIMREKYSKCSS
Procedure: as §3, §4

IFNgamma = target: T5, IFNgamma (UniProt P01579 24-166, limits assumed); test: as above
T5 sequence (looked up): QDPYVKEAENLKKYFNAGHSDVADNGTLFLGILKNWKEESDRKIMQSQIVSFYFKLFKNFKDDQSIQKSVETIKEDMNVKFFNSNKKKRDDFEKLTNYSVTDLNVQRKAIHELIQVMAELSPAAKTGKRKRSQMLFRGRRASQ
Procedure: as §3, §4

[9] = target: IL10 (R&D, 217-IL-025/CF) (UniProt P22301 19-178); test: as above
Procedure: as §3, §4

IL2 (R&D, 202-IL-010/CF) = IL2 (R&D, 202-IL-010/CF) (UniProt P60568 21-153); test: as above
Procedure: as §3, §4

IL3 (203-IL-050/CF) = target: T6, IL3 (203-IL-050/CF) (UniProt P08700 20-152); test: as above
T6 sequence (looked up): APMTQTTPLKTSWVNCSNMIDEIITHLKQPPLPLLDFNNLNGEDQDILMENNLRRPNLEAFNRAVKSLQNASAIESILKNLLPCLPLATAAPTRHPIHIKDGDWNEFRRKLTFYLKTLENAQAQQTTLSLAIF
Procedure: as §3, §4

[10] = target: T7, IL25 (R&D, 8134-IL-025/CF) (UniProt Q9H293 33-177); test: as above
T7 sequence (looked up): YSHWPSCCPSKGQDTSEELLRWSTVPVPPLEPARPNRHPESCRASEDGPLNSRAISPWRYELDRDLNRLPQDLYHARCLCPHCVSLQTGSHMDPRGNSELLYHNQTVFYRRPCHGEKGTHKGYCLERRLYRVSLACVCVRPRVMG
Procedure: as §3, §4

[11] = target: T1, human IL-5 with his-tag (rhIL-5-his); test: FACS blocking: biotin-IL-5 (100 ng/ml) binding to IL-5Rα/β-CHOS cells, antibody diluted
Procedure: Particular method was as follows: CD-CHO comprising […] and […] zeozin was used to culture CHO-S-IL-5Rα and β. During cell culture, the concentration should not exceed 3×10⁶ cells/ml. IL-5Rα/β-CHOS cells in good condition were centrifuged (at 1000 rpm, 5 min), and washed once with 10% FBS in PBS, and the cells were counted, the cell concentration was adjusted to 4×10⁶ cells/ml, and 25 μl was taken out and added into a round-bottom 96-well plate. The antibody to be tested was diluted with PBS solution comprising 10% FBS. The initial concentration was 200 μg/ml, and diluted at 1:10 for 8 gradient dilutions. 25 μl of 100 ng/ml IL-5 labeled by a biotin labeling kit (Tojin Chemical, LK03) was added, and fully mixed with 50 μl of diluted antibody at each concentration, and added into 96-well plate that has been added with cells, and incubated at 4° C. for 1 hour. After the incubation, the sample was centrifuged at 4° C. (400 g, 5 min), and the supernatant was removed, the plated was washed with 200 μl of pre-cooled PBS by centrifugation, repeated for twice; PE-Avidin secondary antibody diluted at 1:1333 was added and incubated in the dark at 4° C. for 40 min, centrifuged at 4° C.

[12] = target: T1, human IL-5 with his-tag (rhIL-5-his); test: cell-based or functional assay
[13] = target: T1, human IL-5 with his-tag (rhIL-5-his); test: cell-based or functional assay; remark: listed apart in the source

Chain of GMCSF (R&D, 215-GM-010/CF) (P04141 18-144 limits assumed): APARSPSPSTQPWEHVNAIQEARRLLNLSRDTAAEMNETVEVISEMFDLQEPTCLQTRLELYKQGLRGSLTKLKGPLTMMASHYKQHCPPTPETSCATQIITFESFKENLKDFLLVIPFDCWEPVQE
Chain of IL13 (R&D, 213-ILB-025/CF) (P35225 35-146 limits assumed): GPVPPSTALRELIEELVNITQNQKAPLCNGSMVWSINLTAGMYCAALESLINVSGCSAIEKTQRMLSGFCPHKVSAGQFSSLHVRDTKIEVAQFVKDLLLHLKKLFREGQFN
Chain of IL2 (R&D, 202-IL-010/CF) (P60568 21-153 limits assumed): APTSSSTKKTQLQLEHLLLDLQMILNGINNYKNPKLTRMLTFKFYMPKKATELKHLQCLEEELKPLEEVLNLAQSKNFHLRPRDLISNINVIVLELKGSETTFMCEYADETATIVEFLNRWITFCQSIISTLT
Chain of IL10 (R&D, 217-IL-025/CF) (P22301 19-178 limits assumed): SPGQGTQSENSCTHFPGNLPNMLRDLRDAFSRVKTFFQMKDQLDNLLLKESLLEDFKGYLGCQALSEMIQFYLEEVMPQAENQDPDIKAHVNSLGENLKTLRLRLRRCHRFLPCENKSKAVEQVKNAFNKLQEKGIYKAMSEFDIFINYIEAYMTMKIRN
Chain of IL9 (R&D, 209-IL-010/CF) (P15248 19-144 limits assumed): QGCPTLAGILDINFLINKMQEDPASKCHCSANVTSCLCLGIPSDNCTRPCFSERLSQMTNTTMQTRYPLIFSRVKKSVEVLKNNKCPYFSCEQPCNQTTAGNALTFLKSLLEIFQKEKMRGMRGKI

- Kd [1]: 0.0727 nM
- Kd (cyno IL-5 with his-tag): 0.205 nM
- Kd [2]: 0.0727 nM
- IC50 [3]: 0.42 µg/mL
B1: mAb1705 (antibody, V domains shown)
VH: EVQLVESGGGLVQPGRSLKLSCTASGFTFSHYYMAWVRQAPKKGLEWVTSISYEGDITYYGDSVKGRFTISRDNAKSTLYLQMNSLRSEDTATYYCASQTLRESFDYWGQGVMVTVSS
VL: DIQMTQSPSSMSVSLGDRVTITCRASQDIANYLSWYQQKIARSPKLVIYGTSNLEVGVPSRFSGSRSGSDYSLTINTLESEDTGIYFCLQDKEFPRTFGGGTRLELK
notes: Murine hybridoma antibody

- Kd [1]: 0.0383 nM
- Kd (cyno IL-5 with his-tag): 0.277 nM
- Kd [2]: 0.0383 nM
- IC50 [3]: 0.4 µg/mL
B3: mAb1706 (antibody, V domains shown)
VH: B1 VH with T23A, S52N, D56N, I57S, T58A, N84D, S98T, Q99E, F105L
VL: DIQMTQSPSSMSVSLGDRVTITCRASQDIGNYLSWYQQKLGKSPKLMIHSASNLEVGVPSRFSGSRSGSDYSLTINTLESEDPGIYFCLQHKQFPRTFGGGTKLELK
notes: Murine hybridoma antibody

Second part, the binder before the results:

B2: h1706-009 (antibody, human IgG1, kappa, V domains shown)
VH: EVQLVESGGGLVQPGGSLRLSCAASGFTFSHYYMAWVRQAPGKGLEWVSSINYEGNSAYYGDSVKGRFTISRDNSKNTLYLQMNSLRAEDTAVYYCATETLRESLDYWGQGTMVTVSS
VL: DIQMTQSPSSVSASVGDRVTITCRASQDIGNYLSWYQQKPGKSPKLMIYSASNLEVGVPSRFSGSGSGTDYTLTISSLQPEDFATYFCLQHKQFPRTFGGGTKVEIKR
- Kd [4]: 0.0545 nM
- binding result (IL9 (R&D, 209-IL-010/CF)): no binding (tested: 40 nM)
- binding result [5]: no binding (tested: 40 nM)
- binding result [6]: no binding (tested: 40 nM)
- binding result [7]: no binding (tested: 40 nM)
- binding result [8]: no binding (tested: 40 nM)
- binding result (IL4 (R&D, 204-IL-050/CF)): no binding (tested: 40 nM)
- binding result (IFNgamma): no binding (tested: 40 nM)
- binding result [9]: no binding (tested: 40 nM)
- binding result (IL2 (R&D, 202-IL-010/CF)): no binding (tested: 40 nM)
- binding result (IL3 (203-IL-050/CF)): no binding (tested: 40 nM)
- binding result [10]: no binding (tested: 40 nM)
- IC50 [11]: 0.0247 µg/mL
- IC50 of blocking IL-5 induced eosinophil adhesion [12]: 0.0043 µg/mL
- IC50 of inhibition of IL-5 induced TF1 cell proliferation [13]: 0.25 nM

B4: h1705-008 (antibody, human IgG1, kappa, V domains shown)
VH: B1 VH with R16G, K19R, T23A, K42G, A75S, S77N, S88A, V112T, M113L
VL: B2 VL with G30A, M47L, S50G, A51T, G66R, Y71F, F87Y, H91D, Q93E
notes: IgG1 with M252Y/S254T/T256E, kappa
- Kd [4]: 0.0342 nM
- binding result (IL9 (R&D, 209-IL-010/CF)): no binding (tested: 40 nM)
- binding result [5]: no binding (tested: 40 nM)
- binding result [6]: no binding (tested: 40 nM)
- binding result [7]: no binding (tested: 40 nM)
- binding result [8]: no binding (tested: 40 nM)
- binding result (IL4 (R&D, 204-IL-050/CF)): no binding (tested: 40 nM)
- binding result (IFNgamma): no binding (tested: 40 nM)
- binding result [9]: no binding (tested: 40 nM)
- binding result (IL2 (R&D, 202-IL-010/CF)): no binding (tested: 40 nM)
- binding result (IL3 (203-IL-050/CF)): no binding (tested: 40 nM)
- binding result [10]: no binding (tested: 40 nM)
- IC50 [11]: 0.0145 µg/mL
- IC50 of blocking IL-5 induced eosinophil adhesion [12]: 0.00485 µg/mL
- IC50 of inhibition of IL-5 induced TF1 cell proliferation [13]: 0.2 nM
